# System: Escherichia coli TOP10
# Assay: shrunken log2 fold change of peptide-encoding DNA abundance (4.5 h post-induction vs induction); higher = less antimicrobial activity (less host growth inhibition)
# Conditions: time post-induction: 4.5 h; library: site-saturation at positions 5, 18, 19, 20
# 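Note: peptides expressed intracellularly from a pBAD plasmid library in pooled LB shake-flask culture, induced with 0.3% L-arabinose, DNA abundance read by NGS, three biological replicates, DESeq2 with apeglm shrinkage.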
row,Sequence,shrunken log2 fold change
1,RRIRTRPPRLPRPRPRPYIGPRP,-0.119
2,RRIRNRPPRLPRPRPRPNTHPRP,-0.584
3,RRIRYRPPRLPRPRPRPLMRPRP,-0.0447
4,RRIRTRPPRLPRPRPRPYQIPRP,-0.0573
5,RRIRKRPPRLPRPRPRPEPRPRP,0.991
6,RRIRERPPRLPRPRPRPYIEPRP,-0.266
7,RRIRWRPPRLPRPRPRPTSEPRP,0.116
8,RRIRMRPPRLPRPRPRPHKKPRP,0.0772
9,RRIRNRPPRLPRPRPRPSGTPRP,-0.217
10,RRIRRRPPRLPRPRPRPTFSPRP,0.185
11,RRIRGRPPRLPRPRPRPSGLPRP,0.3
12,RRIRPRPPRLPRPRPRPQLMPRP,-0.0192
13,RRIRQRPPRLPRPRPRPMMNPRP,-0.127
14,RRIRPRPPRLPRPRPRPGTMPRP,-0.133
15,RRIRTRPPRLPRPRPRPITIPRP,-0.151
16,RRIRWRPPRLPRPRPRPQLSPRP,-0.211
17,RRIRARPPRLPRPRPRPVHYPRP,-0.198
18,RRIRLRPPRLPRPRPRPSAPPRP,0.054
19,RRIRTRPPRLPRPRPRPFARPRP,0.00253
20,RRIRERPPRLPRPRPRPDWEPRP,0.368
21,RRIRWRPPRLPRPRPRPRRLPRP,0.474
22,RRIRMRPPRLPRPRPRPETAPRP,4.06
23,RRIRDRPPRLPRPRPRPVFTPRP,0.076

row,Sequence,shrunken log2 fold change
1,RRIRSRPPRLPRPRPRPPVNPRP,-0.489
2,RRIRHRPPRLPRPRPRPGSGPRP,0.0563
3,RRIRHRPPRLPRPRPRPMFPPRP,-0.281
4,RRIRHRPPRLPRPRPRPKLFPRP,0.0628
5,RRIRHRPPRLPRPRPRPGACPRP,0.203
6,RRIRKRPPRLPRPRPRPQNDPRP,-0.0578
7,RRIRGRPPRLPRPRPRPPFQPRP,0.358
8,RRIRGRPPRLPRPRPRPYVNPRP,0.0862
9,RRIRYRPPRLPRPRPRPTLGPRP,-0.16
10,RRIRYRPPRLPRPRPRPPAAPRP,0.454
11,RRIRERPPRLPRPRPRPWHVPRP,-0.0018
12,RRIRERPPRLPRPRPRPYSEPRP,-0.157
13,RRIRIRPPRLPRPRPRPLEAPRP,-0.118
14,RRIRYRPPRLPRPRPRPDFHPRP,-0.695
15,RRIRDRPPRLPRPRPRPMNWPRP,0.0175
16,RRIRLRPPRLPRPRPRPPCQPRP,0.062
17,RRIRMRPPRLPRPRPRPLFDPRP,0.201
18,RRIRTRPPRLPRPRPRPGRDPRP,-0.0751
19,RRIRKRPPRLPRPRPRPRWTPRP,0.347
20,RRIRARPPRLPRPRPRPEMRPRP,1.19
21,RRIRVRPPRLPRPRPRPHVNPRP,-0.554
22,RRIRCRPPRLPRPRPRPARFPRP,0.558
23,RRIRKRPPRLPRPRPRPWPDPRP,0.238

row,Sequence,shrunken log2 fold change
1,RRIRDRPPRLPRPRPRPVSFPRP,-0.191
2,RRIRPRPPRLPRPRPRPYRYPRP,0.101
3,RRIRDRPPRLPRPRPRPQWWPRP,0.274
4,RRIRSRPPRLPRPRPRPAQPPRP,0.181
5,RRIRERPPRLPRPRPRPVTKPRP,0.365
6,RRIRDRPPRLPRPRPRPEHTPRP,0.225
7,RRIRNRPPRLPRPRPRPQSRPRP,0.181
8,RRIRDRPPRLPRPRPRPETVPRP,-0.0114
9,RRIRNRPPRLPRPRPRPTMGPRP,-0.0468
10,RRIRPRPPRLPRPRPRPWCEPRP,-0.0374
11,RRIRCRPPRLPRPRPRPCRLPRP,-0.3
12,RRIRSRPPRLPRPRPRPKCFPRP,0.318
13,RRIRYRPPRLPRPRPRPELFPRP,-0.0192
14,RRIRPRPPRLPRPRPRPYCWPRP,-0.473
15,RRIRSRPPRLPRPRPRPKIYPRP,-0.265
16,RRIRKRPPRLPRPRPRPDEFPRP,1.24
17,RRIRMRPPRLPRPRPRPQVMPRP,0.0337
18,RRIRTRPPRLPRPRPRPGHTPRP,-0.342
19,RRIRARPPRLPRPRPRPEHNPRP,-0.0925
20,RRIRGRPPRLPRPRPRPDPTPRP,1.06
21,RRIRGRPPRLPRPRPRPPMHPRP,0.95
22,RRIRPRPPRLPRPRPRPYTSPRP,-0.261
23,RRIRLRPPRLPRPRPRPGGNPRP,-0.0421

row,Sequence,shrunken log2 fold change
1,RRIRVRPPRLPRPRPRPCRQPRP,-0.0134
2,RRIRHRPPRLPRPRPRPPKWPRP,0.345
3,RRIRWRPPRLPRPRPRPPEVPRP,0.334
4,RRIRNRPPRLPRPRPRPIVTPRP,-0.179
5,RRIRHRPPRLPRPRPRPPNPPRP,0.238
6,RRIRPRPPRLPRPRPRPENVPRP,-0.2
7,RRIRSRPPRLPRPRPRPYAYPRP,-0.315
8,RRIRRRPPRLPRPRPRPGRPPRP,0.259
9,RRIRYRPPRLPRPRPRPMQPPRP,-0.0124
10,RRIRARPPRLPRPRPRPVHTPRP,0.375
11,RRIRYRPPRLPRPRPRPYVFPRP,-0.0427
12,RRIRERPPRLPRPRPRPYWRPRP,-0.0166
13,RRIRKRPPRLPRPRPRPKVPPRP,0.225
14,RRIRWRPPRLPRPRPRPIHRPRP,-0.0434
15,RRIRARPPRLPRPRPRPWEPPRP,0.18
16,RRIRERPPRLPRPRPRPKYFPRP,-0.0979
17,RRIRYRPPRLPRPRPRPDCMPRP,0.0186
18,RRIRARPPRLPRPRPRPTREPRP,0.573
19,RRIRARPPRLPRPRPRPAKQPRP,-0.197
20,RRIRFRPPRLPRPRPRPHRDPRP,-0.36
21,RRIRSRPPRLPRPRPRPGSPPRP,0.106
22,RRIRRRPPRLPRPRPRPPVVPRP,0.26

# — the supplement of paper PMC9112550, “Optimization of the antimicrobial peptide Bac7 by deep mutational scanning” (BMC Biology, 2022)
